Measurements from publication PMC3969726, “ArdA proteins from different mobile genetic elements can bind to the EcoKI Type I DNA methyltransferase of E. coli K12^☆” (Biochimica et Biophysica Acta, 2014).

Target: the molecule itself
Test: SEC; Biosep-SEC-S3000 column; 20 mM Tris-HCl, 20 mM MES, 200 mM NaCl, 10 mM MgCl2, 0.1 mM EDTA, 7 mM 2-mercaptoethanol, pH 6.5; 25 °C; apparent molecular mass against injected monomer concentration, fitted to a monomer-dimer equilibrium; apparent constants; dimer to monomers

B1: V583 ArdA (ArdA protein from Enterococcus faecalis V583, Orf EF2335) (natural protein, UniProt Q832A5 1-166, looked up)
chain: MEQMRVYIANLGKYNEGELVGAWFTPPVDFDEVKERIGLNDDYEEYAIHDYELPFEIDEYTSIEEINRLCGLAEELEGTPIGEVASEIQHAFFNSFEEMVEHVDDIVYYPDCNDMEDLAYQMVNEGYLGDAPENFVRYFNYSSFARDLEIEGNYLVTNRGIFEYPI
notes: ArdA protein, open reading frame EF2335 of Enterococcus faecalis V583; In solution an equilibrium of monomer and dimer; source: overexpressed, purified (DEAE anion exchange chromatography, size exclusion chromatography)
Protein B1 has a Kd of 980 nM.
